In this experiment the target is recombinant HER2 ectodomain (human, UniProt P04626 23-652). The experiment can be described thus: column shift assay: gel filtration monitored at A280, diabody pre-incubated with recombinant HER2 ectodomain. (In gel filtration, larger molecules generally elute earlier.)

Description: Binding activity to soluble antigen was established by a column shift. […] In the column shift assay, at least two times mole excess of soluble antigen to diabody was incubated for 1 hr at ambient temperature. Binding activity was determined by comparing the resulting diabody/antigen complex peak to the free diabody peak. The elution profiles of the diabody or diabody/antigen complex was monitored either directly though absorbance at 280 nm or, in cases where the diabody was Europium labelled, elution fractions were measured in a Victor time-resolved fluorometer using the Europium mode in the Victor multilabel program wizard.

B1: AVP07-17 anti-Her2 diabody (other)
chain: QVQLVQSGAEVKKPGESLKISCKGSGYSFTSYWIAWVRQMPGKGLEYMGLIYPGDSDTKYSPSFQGQVTISVDKSVSTAYLQWSSLKPSDSAVYFCARHDVGYCSSSNCAKWPEYFQHWGQGTLVTVSSGGGGSQSVLTQPPSVSAAPGQKVTISCSGSSSNIGNNYVSWYQQLPGTVPKLLIYGHTNRPAGVPDRFSGSKSGTSASLAISGFRSEDEADYYCAAWDDSLSGWVFGGGTKLTVLGAAAEQKLISEEDLNGAAHHHHHH
notes: Diabody: homodimer of VH-Gly4Ser-VL chains from a human anti-HER2 mAb, with a C-terminal His6 tag from cloning; also called AVP07-17 Avibody
For the molecule B1, the binding result is “binds”.

These data come from patent US20120171115A1 (AVIPEP, published 2012).
